For the experiment, the target named is T1, HLA-A*0201 expressed on T2 cells (human).
T1 construct: also called HLA-A2
Description: cell-based peptide binding assay on T2 cells.

Data on one molecule can be found in US20090317415A1 (UNIVERSITY COLLEGE CARDIFF CONSULTANTS, published 2009).

In the case of SLLACALEV (also called Rb peptide) [Rb485-493 (Rb7) peptide], the binding result is “binds”.
